Data published in patent publication US20190330362A1 (GOVERNING COUNCIL OF THE UNIVERSITY OF TORONTO, published 2019).

T1: human CD133 (GenBank Accession O43490) (human, UniProt O43490 20-865)
T1 construct: Full-length human CD133 overexpressed in HEK293-CD133 cells, or endogenous on Caco-2, HPAC, PL45, RWP-1 and GBM cells; In the Western blots the same protein is denatured in whole cell lysate; also called Prominin-1; cell surface CD133
T1 sequence: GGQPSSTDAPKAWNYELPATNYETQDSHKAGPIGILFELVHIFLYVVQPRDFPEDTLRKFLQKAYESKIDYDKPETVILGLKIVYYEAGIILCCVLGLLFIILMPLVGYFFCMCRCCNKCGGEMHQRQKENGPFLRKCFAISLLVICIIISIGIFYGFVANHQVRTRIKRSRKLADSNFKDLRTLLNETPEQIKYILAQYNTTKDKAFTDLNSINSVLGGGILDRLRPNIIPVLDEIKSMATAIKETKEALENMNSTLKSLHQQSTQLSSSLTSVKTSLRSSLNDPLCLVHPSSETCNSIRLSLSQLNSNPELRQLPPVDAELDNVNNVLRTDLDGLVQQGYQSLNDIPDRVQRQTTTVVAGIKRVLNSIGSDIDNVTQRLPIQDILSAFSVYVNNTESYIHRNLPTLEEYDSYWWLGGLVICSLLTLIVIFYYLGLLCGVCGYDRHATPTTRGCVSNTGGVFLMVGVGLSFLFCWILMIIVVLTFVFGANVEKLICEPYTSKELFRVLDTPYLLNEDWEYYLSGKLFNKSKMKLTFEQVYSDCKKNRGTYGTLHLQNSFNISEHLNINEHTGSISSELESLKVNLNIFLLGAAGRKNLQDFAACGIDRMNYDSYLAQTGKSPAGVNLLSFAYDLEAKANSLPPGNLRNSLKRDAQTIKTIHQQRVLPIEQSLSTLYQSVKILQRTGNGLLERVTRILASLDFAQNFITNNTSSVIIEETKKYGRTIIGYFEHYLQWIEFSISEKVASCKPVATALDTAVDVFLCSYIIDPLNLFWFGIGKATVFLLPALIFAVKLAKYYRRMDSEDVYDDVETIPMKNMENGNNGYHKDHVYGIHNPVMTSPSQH

B1: IgG RW03 (antibody, V domains shown)
VH: EVQLVESGGGLVQPGGSLRLSCAASGFNLSSSSIHWVRQAPGKGLEWVAYIYPYYSYTYYADSVKGRFTISADTSKNTAYLQMNSLRAEDTAVYYCARFGSVAGFDYWGQGTLVTVSS
VL: DIQMTQSPSSLSASVGDRVTITCRASQSVSSAVAWYQQKPGKAPKLLIYSASSLYSGVPSRFSGSRSGTDFTLTISSLQPEDFATYYCQQYSHAGHLFTFGQGTKVEIKR
notes: Human IgG1 (hG1) with kappa light chain (hK); variable region of Fab RW03 (Library F); also called RW03 IgG; lIgG RW03
B2: IgG RW01 (antibody, V domains shown)
VH: EVQLVESGGGLVQPGGSLRLSCAASGFNIYYYGSMHWVRQAPGKGLEWVASISPYYGSTYYADSVKGRFTISADTSKNTAYLQMNSLRAEDTAVYYCARHASSGYGHYAVYGIDYWGQGTLVTVSS
VL: DIQMTQSPSSLSASVGDRVTITCRASQGSSYVAWYQQKPGKAPKLLIYSASYLYSGVPSRFSGSRSGTDFTLTISSLQPEDFATYYCQQGVWSLITFGQGTKVEIKR
notes: also called RW01 IgG; lIgG RW01
B3: phage-Fab RW03 (Fab, V domains shown)
VH: EVQLVESGGGLVQPGGSLRLSCAASGFNLSSSSIHWVRQAPGKGLEWVAYIYPYYSYTYYADSVKGRFTISADTSKNTAYLQMNSLRAEDTAVYYCARFGSVAGFDYWGQGTLVTVSS
VL: DIQMTQSPSSLSASVGDRVTITCRASQSVSSAVAWYQQKPGKAPKLLIYSASSLYSGVPSRFSGSRSGTDFTLTISSLQPEDFATYYCQQYSHAGHLFTFGQGTKVEIK
notes: also called phage-Fab clone RW03; RW03 clone

Key:
[1] = target: T1, human CD133 (GenBank Accession O43490); assay: flow cytometry, serial dilutions on HEK293-CD133 cells, anti-human Fab'2 secondary antibody
[2] = target: T1, human CD133 (GenBank Accession O43490); assay: flow cytometry on CD133-expressing cells (cell line not given), IgG alone, secondary antibody against human Fc
[3] = target: T1, human CD133 (GenBank Accession O43490); assay: competitive flow cytometry on CD133-expressing cells first incubated with 25 nM Fab RW01, secondary antibody against human Fc
[4] = target: T1, human CD133 (GenBank Accession O43490); assay: cell-based phage ELISA (OD450)
Experimental: Following cell selections, round four output phage for each library was plated for single colonies. These colonies were grown up in an overnight culture and tested for binding to cells by cell-based ELISA. The plates were read and OD450 nm was detected and recorded. The assay measured binding of clones to CD133-overexpressing HEK293-CD133 cells (under “CD133” column headers) vs parental HEK293 cells (under “HEK293” column headers).
After four rounds of positive and negative selection, serial dilutions were made of the round four output phage (10E-1 to 10E-3) for each library and used to infect XL1-blue cells. The infected cells were plated for isolating single colonies to be used in a clonal cell-based ELISA for isolating CD133-specific binders.

Row | Binder | EC50 [1] [nM] | EC50 (read off the curve) [2] [nM] | EC50 (read off the curve) [3] [nM] | fold binding to HEK293-CD133 cells vs HEK293 cells [4] [fold]
1 | B1 | 0.5 | ~1 | ~1 | 
2 | B2 | 2.5 |  |  | 
3 | B3 |  |  |  | ≥ 1.5
